# Measured values: patent US6482925
# Where a chain is given by its changes, count along the chain named. Numbers in names are those of the source. Like-named read-outs stand apart in the source and are kept apart here.
# B1: LAG-3 mutant R75E (receptor)
# chain: LQPGAEVPVVWAQEGAPAQLPCSPTIPLQDLSLLRRAGVTWQHQPDSGPPAAAPGHPLAPGPHPAAPSSWGPRPERYTVLSVGPGGLRSGRLPLQPRVQLDERGRQRGDFSLWLRPARRADAGEYRAAVHLRDRALSCRLRLRLGQASMTASPPGSLRASDWVILNCSFSRPDRPASVHWFRNRGQGRVPVRESPHHHLAESFLFLPQVSPMDSGPWGCILTYRDGFNVSIMYNLTVLGLEPPTPLTVYAGAGSRVGLPCRLPAGVGTRSFLTAKWTPPGGGPDLLVTGDNGDFTLRLEDVSQAQAGTYTCHIHLQEQQLNATVTLAIITVTPKSFGSPGSLGKLLCEVTPVSGQERFVWSSLDTPSQRSFSGPWLEAQEAQLLSQPWQCQLYQGERLLGAAVYFTELSSPGAQRSGRAPGALPAGHLLLFLTLGVLSLLLLVTGAFGFHLWRRQWRPRRFSALEQGIHPRRLRAR
# B2: LAG-3 double mutant D133A/R134A (receptor)
# chain: B1 chain with E75R, D133A, R134A
# B3: wild-type LAG-3 (lymphocyte activation gene 3 protein) (receptor)
# chain: B1 chain with E75R
# B4: LAG-3 mutant D30A (receptor)
# chain: B1 chain with D30A, E75R
# B5: LAG-3 mutant Y77F (receptor)
# chain: B1 chain with E75R, Y77F
# B6: LAG-3 mutant H63A (receptor)
# chain: B1 chain with H63A, E75R
# B7: LAG-3 mutant R103A (receptor)
# chain: B1 chain with E75R, R103A
# B8: LAG-3 mutant Q13A (receptor)
# chain: B1 chain with Q13A, E75R
# B9: LAG-3 mutant H56A (receptor)
# chain: B1 chain with H56A, E75R
# B10: LAG-3 mutant D109E (receptor)
# chain: B1 chain with E75R, D109E
# B11: LAG-3 mutant H63F (receptor)
# chain: B1 chain with H63F, E75R
# B12: LAG-3 mutant R73E (receptor)
# chain: B1 chain with R73E, E75R
# B13: LAG-3 mutant R115A (receptor)
# chain: B1 chain with E75R, R115A
# B14: LAG-3 mutant R75A (receptor)
# chain: B1 chain with E75A
# B15: LAG-3 mutant D225L (receptor)
# chain: B1 chain with E75R, D225L
# B16: LAG-3 mutant R76E (receptor)
# chain: B1 chain with E75R, R76E
# B17: LAG-3 mutant H56F (receptor)
# chain: B1 chain with H56F, E75R
# B18: LAG-3 mutant R88A (receptor)
# chain: B1 chain with E75R, R88A
# B19: LAG-3 mutant R107K (receptor)
# chain: B1 chain with E75R, R107K
# Experiments:
# [1] = molecular target: MHC class II molecules on Daudi B cells; assay: 51Cr Daudi cell adhesion; wild-type expression titrated by DNA quantity
# [2] = molecular target: MHC class II molecules on Daudi B cells; assay: 51Cr Daudi cell adhesion to transfected Cos-7 cells; cpm relative to wild-type, background not subtracted
# [3] = molecular target: MHC class II molecules on Daudi B cells; assay: 51Cr Daudi cell adhesion to transfected Cos-7 cells
# [4] = molecular target: MHC class II molecules on Daudi B cells; assay: as above; remark: listed apart in the source
Molecule,Adhesion (relative to wild-type LAG-3) [2],further results
"LAG-3 deletion mutant (54/66), deletion of the tip of the external loop (from UniProt P18627 23-492) (receptor)",0.08,reduction of bound cpm against wild-type LAG-3 at comparable expression [1]: 40%
"LAG-3 deletion mutant (D2), deletion of domain D2 (from UniProt P18627 23-492) (receptor)",0.11,reduction of bound cpm against wild-type LAG-3 at comparable expression [1]: 40%
B1,4.1,fold increase of binding against wild-type LAG-3 [3]: > 3 fold
B2,0.78,
B3,1,
B4,0.41,fold reduction of binding against wild-type LAG-3 [3]: 2 fold; reduction of bound cpm against wild-type LAG-3 at comparable expression [1]: 40%
B5,0.05,reduction of bound cpm against wild-type LAG-3 at comparable expression [1]: 40%
B6,0.83,
B7,0.49,fold reduction of binding against wild-type LAG-3 [3]: 2 fold
B8,0.92,
B9,0.45,fold reduction of binding against wild-type LAG-3 [3]: 2 fold; fold reduction of binding against wild-type LAG-3 [4]: > 2 fold; reduction of bound cpm against wild-type LAG-3 at comparable expression [1]: 40%
B10,0.18,
B11,0.91,
B12,3.25,fold increase of binding against wild-type LAG-3 [3]: > 3 fold
B13,0.23,reduction of bound cpm against wild-type LAG-3 at comparable expression [1]: 40%
B14,4.2,fold increase of binding against wild-type LAG-3 [3]: > 3 fold
B15,0.89,
B16,2.95,fold increase of binding against wild-type LAG-3 [3]: > 3 fold
B17,0.89,
B18,0.18,
B19,1.02,
